Ends that are not written are not given here. * marks the point of attachment. C16 diacid = O=C(O)CCCCCCCCCCCCCCC(=O)*
T1: human GIP receptor (human, UniProt P48546 22-466)
T1 sequence (looked up): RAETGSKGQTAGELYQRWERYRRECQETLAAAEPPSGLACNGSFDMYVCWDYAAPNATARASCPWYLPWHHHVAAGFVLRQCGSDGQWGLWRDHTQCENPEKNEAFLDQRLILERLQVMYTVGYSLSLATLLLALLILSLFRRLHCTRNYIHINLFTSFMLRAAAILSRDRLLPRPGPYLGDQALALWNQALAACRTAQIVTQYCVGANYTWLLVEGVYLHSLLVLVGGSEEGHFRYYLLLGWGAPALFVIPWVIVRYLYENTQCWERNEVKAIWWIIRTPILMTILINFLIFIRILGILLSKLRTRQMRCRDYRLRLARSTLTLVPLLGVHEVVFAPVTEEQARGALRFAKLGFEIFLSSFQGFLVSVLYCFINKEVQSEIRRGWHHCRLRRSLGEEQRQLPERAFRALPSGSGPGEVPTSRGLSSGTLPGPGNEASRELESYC

B1: AT182 [hGIP(5-30)NH2[F22K]-C16diacid/22] (peptide)
peptide: TFISDYSIAMDKIHQQDK(C16 diacid)VNWLLAQK-NH2
modifications: N-terminus assumed
SMILES: CC[C@H](C)[C@H](NC(=O)[C@H](CO)NC(=O)[C@H](Cc1ccc(O)cc1)NC(=O)[C@H](CC(=O)O)NC(=O)[C@H](CO)NC(=O)[C@@H](NC(=O)[C@H](Cc1ccccc1)NC(=O)[C@@H](N)[C@@H](C)O)[C@@H](C)CC)C(=O)N[C@@H](C)C(=O)N[C@@H](CCSC)C(=O)N[C@@H](CC(=O)O)C(=O)N[C@@H](CCCCN)C(=O)N[C@H](C(=O)N[C@@H](Cc1c[nH]cn1)C(=O)N[C@@H](CCC(N)=O)C(=O)N[C@@H](CCC(N)=O)C(=O)N[C@@H](CC(=O)O)C(=O)N[C@@H](CCCCNC(=O)CCCCCCCCCCCCCCC(=O)O)C(=O)N[C@H](C(=O)N[C@@H](CC(N)=O)C(=O)N[C@@H](Cc1c[nH]c2ccccc12)C(=O)N[C@@H](CC(C)C)C(=O)N[C@@H](CC(C)C)C(=O)N[C@@H](C)C(=O)N[C@@H](CCC(N)=O)C(=O)N[C@@H](CCCCN)C(N)=O)C(C)C)[C@@H](C)CC
B2: AT183 [hGIP(5-30)NH2[V23K]-C16diacid/23] (peptide)
peptide: TFISDYSIAMDKIHQQDFK(C16 diacid)NWLLAQK-NH2
modifications: N-terminus assumed
SMILES: CC[C@H](C)[C@H](NC(=O)[C@H](CO)NC(=O)[C@H](Cc1ccc(O)cc1)NC(=O)[C@H](CC(=O)O)NC(=O)[C@H](CO)NC(=O)[C@@H](NC(=O)[C@H](Cc1ccccc1)NC(=O)[C@@H](N)[C@@H](C)O)[C@@H](C)CC)C(=O)N[C@@H](C)C(=O)N[C@@H](CCSC)C(=O)N[C@@H](CC(=O)O)C(=O)N[C@@H](CCCCN)C(=O)N[C@H](C(=O)N[C@@H](Cc1c[nH]cn1)C(=O)N[C@@H](CCC(N)=O)C(=O)N[C@@H](CCC(N)=O)C(=O)N[C@@H](CC(=O)O)C(=O)N[C@@H](Cc1ccccc1)C(=O)N[C@@H](CCCCNC(=O)CCCCCCCCCCCCCCC(=O)O)C(=O)N[C@@H](CC(N)=O)C(=O)N[C@@H](Cc1c[nH]c2ccccc12)C(=O)N[C@@H](CC(C)C)C(=O)N[C@@H](CC(C)C)C(=O)N[C@@H](C)C(=O)N[C@@H](CCC(N)=O)C(=O)N[C@@H](CCCCN)C(N)=O)[C@@H](C)CC
B3: AT186 [hGIP(5-30)NH2[L26K]-C16diacid/26] (peptide)
peptide: TFISDYSIAMDKIHQQDFVNWK(C16 diacid)LAQK-NH2
modifications: N-terminus assumed
SMILES: CC[C@H](C)[C@H](NC(=O)[C@H](CO)NC(=O)[C@H](Cc1ccc(O)cc1)NC(=O)[C@H](CC(=O)O)NC(=O)[C@H](CO)NC(=O)[C@@H](NC(=O)[C@H](Cc1ccccc1)NC(=O)[C@@H](N)[C@@H](C)O)[C@@H](C)CC)C(=O)N[C@@H](C)C(=O)N[C@@H](CCSC)C(=O)N[C@@H](CC(=O)O)C(=O)N[C@@H](CCCCN)C(=O)N[C@H](C(=O)N[C@@H](Cc1c[nH]cn1)C(=O)N[C@@H](CCC(N)=O)C(=O)N[C@@H](CCC(N)=O)C(=O)N[C@@H](CC(=O)O)C(=O)N[C@@H](Cc1ccccc1)C(=O)N[C@H](C(=O)N[C@@H](CC(N)=O)C(=O)N[C@@H](Cc1c[nH]c2ccccc12)C(=O)N[C@@H](CCCCNC(=O)CCCCCCCCCCCCCCC(=O)O)C(=O)N[C@@H](CC(C)C)C(=O)N[C@@H](C)C(=O)N[C@@H](CCC(N)=O)C(=O)N[C@@H](CCCCN)C(N)=O)C(C)C)[C@@H](C)CC
B4: AT185 [hGIP(5-30)NH2[W25K]-C16diacid/25] (peptide)
peptide: TFISDYSIAMDKIHQQDFVNK(C16 diacid)LLAQK-NH2
modifications: N-terminus assumed
SMILES: CC[C@H](C)[C@H](NC(=O)[C@H](CO)NC(=O)[C@H](Cc1ccc(O)cc1)NC(=O)[C@H](CC(=O)O)NC(=O)[C@H](CO)NC(=O)[C@@H](NC(=O)[C@H](Cc1ccccc1)NC(=O)[C@@H](N)[C@@H](C)O)[C@@H](C)CC)C(=O)N[C@@H](C)C(=O)N[C@@H](CCSC)C(=O)N[C@@H](CC(=O)O)C(=O)N[C@@H](CCCCN)C(=O)N[C@H](C(=O)N[C@@H](Cc1c[nH]cn1)C(=O)N[C@@H](CCC(N)=O)C(=O)N[C@@H](CCC(N)=O)C(=O)N[C@@H](CC(=O)O)C(=O)N[C@@H](Cc1ccccc1)C(=O)N[C@H](C(=O)N[C@@H](CC(N)=O)C(=O)N[C@@H](CCCCNC(=O)CCCCCCCCCCCCCCC(=O)O)C(=O)N[C@@H](CC(C)C)C(=O)N[C@@H](CC(C)C)C(=O)N[C@@H](C)C(=O)N[C@@H](CCC(N)=O)C(=O)N[C@@H](CCCCN)C(N)=O)C(C)C)[C@@H](C)CC
B5: AT184 [hGIP(5-30)NH2[N24K]-C16diacid/24] (peptide)
peptide: TFISDYSIAMDKIHQQDFVK(C16 diacid)WLLAQK-NH2
modifications: N-terminus assumed
SMILES: CC[C@H](C)[C@H](NC(=O)[C@H](CO)NC(=O)[C@H](Cc1ccc(O)cc1)NC(=O)[C@H](CC(=O)O)NC(=O)[C@H](CO)NC(=O)[C@@H](NC(=O)[C@H](Cc1ccccc1)NC(=O)[C@@H](N)[C@@H](C)O)[C@@H](C)CC)C(=O)N[C@@H](C)C(=O)N[C@@H](CCSC)C(=O)N[C@@H](CC(=O)O)C(=O)N[C@@H](CCCCN)C(=O)N[C@H](C(=O)N[C@@H](Cc1c[nH]cn1)C(=O)N[C@@H](CCC(N)=O)C(=O)N[C@@H](CCC(N)=O)C(=O)N[C@@H](CC(=O)O)C(=O)N[C@@H](Cc1ccccc1)C(=O)N[C@H](C(=O)N[C@@H](CCCCNC(=O)CCCCCCCCCCCCCCC(=O)O)C(=O)N[C@@H](Cc1c[nH]c2ccccc12)C(=O)N[C@@H](CC(C)C)C(=O)N[C@@H](CC(C)C)C(=O)N[C@@H](C)C(=O)N[C@@H](CCC(N)=O)C(=O)N[C@@H](CCCCN)C(N)=O)C(C)C)[C@@H](C)CC

The binders below were run against T1, human GIP receptor (assay: cell-based or functional assay).

Binder | cAMP accumulation Fold (fold change from GIP(5-30)NH2) [fold] | cAMP accumulation IC50 [nM] | cAMP accumulation logIC50
B1 | 21.9 | 603 | -6.22 log(M)
B2 | 55 | 1510 | -5.82 log(M)
B3 | 2.6 | 70.8 | -7.15 log(M)
B4 | 2.4 | 66.1 | -7.18 log(M)
B5 | 3.9 | 107 | -6.97 log(M)

Each binder was assayed against T1, human GIP receptor (assay: 125I-hGIP(1-42) competition binding, COS-7 cells expressing human GIPR, with 2% HSA;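 further: nonspecific signal taken as radioligand bound to untransfected cells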).
Method: (§1) After incubation, the cells were washed twice in ice-cold binding buffer (+/−2% HSA) and lysed using 200 mM NaOH with 1% SDS for 30 min. Nonspecific binding was determined as the binding of radioactive ligand to untransfected cells.

Binder | Ki [nM]
B1 | 1190
B2 | 23300
B3 | 830
B4 | 336
B5 | 871

These binders were tested against T1, human GIP receptor (assay: 125I-hGIP(1-42) competition binding, COS-7 cells expressing human GIPR, without HSA;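 further: nonspecific binding defined as radioligand bound to cells lacking the transfected receptor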).
Method: as §1

Binder | Ki [nM]
B1 | 841
B2 | 5350
B3 | 105
B4 | 67.1
B5 | 224

These binders were tested against T1, human GIP receptor (assay: ratio of Ki with 2% HSA to Ki without HSA, 125I-hGIP competition binding on hGIPR COS-7 cells;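 further: nonspecific binding was defined as radioligand signal on cells lacking the receptor transfection, with cell lysates measured after washes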).
Method: as §1

Binder | Fold (Ki + HSA / Ki - HSA) [fold]
B1 | 1.4
B2 | 4.4
B3 | 7.9
B4 | 5
B5 | 3.9

From US20200087373A1 (UNIVERSITY OF COPENHAGEN, published 2020)
